Results as given in publication PMC10491584, “Structural convergence endows nuclear transport receptor Kap114p with a transcriptional repressor function toward TATA-binding protein” (Nature Communications, 2023).
Where “and” joins values, the source holds several entries; their conditions need not be identical. Identical values can stand only once.

Experiments:
Kap114p = molecular target: T1, Kap114p (S. cerevisiae, UniProt P53067 1-1004); test: ITC; Kap114p (wild type or mutant) 50 uM in the sample cell, partner 500 uM in the syringe; 25 °C; 20 mM HEPES pH 7.4, 150 mM NaCl; triplicate; conditions: both partners purified
T1 construct: Kap114p, S. cerevisiae, full length, amplified from total genomic DNA; also called wild type Kap114p; source: E. coli (Rosetta strain), purified (GST resin, MonoQ, Superdex 200)
T1 sequence (looked up): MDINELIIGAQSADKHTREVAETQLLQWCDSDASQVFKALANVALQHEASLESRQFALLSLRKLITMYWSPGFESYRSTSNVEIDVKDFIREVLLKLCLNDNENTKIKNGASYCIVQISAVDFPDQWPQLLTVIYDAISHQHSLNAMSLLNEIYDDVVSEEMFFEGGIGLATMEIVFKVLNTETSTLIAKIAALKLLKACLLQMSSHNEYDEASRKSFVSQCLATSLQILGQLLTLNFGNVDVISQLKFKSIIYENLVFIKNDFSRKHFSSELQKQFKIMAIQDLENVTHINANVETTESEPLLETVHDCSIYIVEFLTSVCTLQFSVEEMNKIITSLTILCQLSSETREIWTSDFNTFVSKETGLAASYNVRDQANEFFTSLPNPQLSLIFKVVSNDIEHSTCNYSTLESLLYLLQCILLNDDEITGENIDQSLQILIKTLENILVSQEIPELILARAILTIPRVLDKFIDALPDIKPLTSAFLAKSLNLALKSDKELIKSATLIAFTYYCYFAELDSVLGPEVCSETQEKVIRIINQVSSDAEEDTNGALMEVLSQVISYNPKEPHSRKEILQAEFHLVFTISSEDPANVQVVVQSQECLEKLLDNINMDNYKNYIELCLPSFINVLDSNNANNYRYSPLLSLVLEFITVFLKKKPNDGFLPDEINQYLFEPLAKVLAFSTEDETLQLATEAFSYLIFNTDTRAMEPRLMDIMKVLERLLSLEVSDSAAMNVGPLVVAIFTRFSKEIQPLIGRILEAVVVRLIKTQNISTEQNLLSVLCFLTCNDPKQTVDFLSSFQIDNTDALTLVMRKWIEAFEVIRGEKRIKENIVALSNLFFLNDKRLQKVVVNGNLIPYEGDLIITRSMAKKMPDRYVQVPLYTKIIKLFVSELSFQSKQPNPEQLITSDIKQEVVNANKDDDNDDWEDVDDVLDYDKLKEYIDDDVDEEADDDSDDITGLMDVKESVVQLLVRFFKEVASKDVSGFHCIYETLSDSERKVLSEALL

Kap114pΔ(932-941) = molecular target: T2, Kap114pΔ(932-941) (S. cerevisiae, UniProt P53067 1-1004, Δ(932-941)); test: as above; conditions: both partners purified
T2 construct: Kap114p, S. cerevisiae, full length with residues 932-941 deleted; also called Kap114p(D932-941); Kap114p deletion mutant lacking the HEAT19 loop (a.a. 932-941); source: E. coli (Rosetta strain), purified (GST resin, MonoQ, Superdex 200)
T2 sequence (looked up): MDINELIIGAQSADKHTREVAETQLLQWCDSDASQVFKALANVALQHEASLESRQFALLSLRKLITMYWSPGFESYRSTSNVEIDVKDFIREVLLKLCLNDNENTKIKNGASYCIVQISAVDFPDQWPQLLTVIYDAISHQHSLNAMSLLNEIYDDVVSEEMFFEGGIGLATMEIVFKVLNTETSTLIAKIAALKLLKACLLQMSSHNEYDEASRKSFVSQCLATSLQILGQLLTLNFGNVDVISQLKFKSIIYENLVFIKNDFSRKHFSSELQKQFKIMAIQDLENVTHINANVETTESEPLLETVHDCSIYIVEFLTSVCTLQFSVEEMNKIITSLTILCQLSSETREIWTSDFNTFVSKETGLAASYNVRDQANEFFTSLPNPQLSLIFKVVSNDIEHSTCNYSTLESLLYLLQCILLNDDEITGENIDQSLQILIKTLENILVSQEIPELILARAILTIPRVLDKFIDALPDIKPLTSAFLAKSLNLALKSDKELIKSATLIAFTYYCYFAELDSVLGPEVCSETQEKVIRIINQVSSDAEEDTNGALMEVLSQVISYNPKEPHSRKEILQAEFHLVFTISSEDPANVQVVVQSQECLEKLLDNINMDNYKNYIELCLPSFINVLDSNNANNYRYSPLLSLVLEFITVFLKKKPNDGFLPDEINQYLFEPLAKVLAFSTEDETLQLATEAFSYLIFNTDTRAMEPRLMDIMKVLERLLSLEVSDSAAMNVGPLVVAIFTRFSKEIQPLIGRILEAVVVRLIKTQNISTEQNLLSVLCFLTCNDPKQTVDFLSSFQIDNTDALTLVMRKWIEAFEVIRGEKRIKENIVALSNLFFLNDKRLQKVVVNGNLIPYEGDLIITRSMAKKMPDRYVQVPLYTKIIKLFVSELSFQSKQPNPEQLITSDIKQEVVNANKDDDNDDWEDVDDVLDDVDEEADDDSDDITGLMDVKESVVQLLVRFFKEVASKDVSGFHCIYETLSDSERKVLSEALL

B1: core domain of yTBP (a.a. 61-240) (domain or fragment, S. cerevisiae, UniProt P13393 61-240, looked up)
chain: SGIVPTLQNIVATVTLGCRLDLKTVALHARNAEYNPKRFAAVIMRIREPKTTALIFASGKMVVTGAKSEDDSKLASRKYARIIQKIGFAAKFTDFKIQNIVGSCDVKFPIRLEGLAFSHGTFSSYEPELFPGLIYRMVKPKIVLLIFVSGKIVLTGAKQREEIYQAFEAIYPVLSEFRKM
notes: 61-240; also called yTBP^C; yTBPc; source: E. coli (Rosetta strain), purified (Ni-NTA, HiTrap SP, Superdex 75); not shown: 6xHis, N-terminal, cleaved
B1 was tested, and the Ka (Kap114p) was 9.85e+08 M⁻¹ and 6.92e+08 M⁻¹ and 9.37e+08 M⁻¹ and the Ka (Kap114pΔ(932-941)) was 5.09e+06 M⁻¹ and 8.69e+06 M⁻¹ and 6.15e+06 M⁻¹.
